Assay results reported in patent US20210123927A1.

Biological target: galactose-deficient IgA1 (Gd-IgA1), enzymatically generated (UniProt P01876)
Experiment: dot blot, anti-His detection

Sequence of UniProt P01876 (P01876 other isoform, or with tags, fused parts or gaps): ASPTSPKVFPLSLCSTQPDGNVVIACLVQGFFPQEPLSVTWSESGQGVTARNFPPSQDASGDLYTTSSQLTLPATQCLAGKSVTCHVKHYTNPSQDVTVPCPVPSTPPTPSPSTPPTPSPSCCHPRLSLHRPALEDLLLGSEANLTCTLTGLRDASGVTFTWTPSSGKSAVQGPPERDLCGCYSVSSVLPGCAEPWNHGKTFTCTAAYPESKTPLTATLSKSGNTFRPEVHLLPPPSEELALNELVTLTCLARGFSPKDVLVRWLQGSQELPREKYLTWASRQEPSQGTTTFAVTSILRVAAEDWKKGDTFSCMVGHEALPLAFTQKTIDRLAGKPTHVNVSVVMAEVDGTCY

“RussiaSea-001 (Crenomytilus grayanus lectin/CGL), His-tagged (artificial RussiaSea-001) (from UniProt H2FH31 1-150)” was tested, and the amount of Gd-IgA1 detected in dot blot was over 1 µg.
